Data taken from patent US20250051476A1 (ABDERA THERAPEUTICS, published 2025).
Where two headings read alike, the source gives them in different places.

What was measured:
[1] = biological target: T1, DLL3 EGF1-6(mIgG2aCH2-CH3) (human); test: Octet BLI, VHH-Fc captured on AHC sensor, DLL3 EGF1-6-mIgG2a Fc titrated
T1 construct: also called hDLL3 EGF domain construct; DLL3 EGF1-6 domain
T1 chain: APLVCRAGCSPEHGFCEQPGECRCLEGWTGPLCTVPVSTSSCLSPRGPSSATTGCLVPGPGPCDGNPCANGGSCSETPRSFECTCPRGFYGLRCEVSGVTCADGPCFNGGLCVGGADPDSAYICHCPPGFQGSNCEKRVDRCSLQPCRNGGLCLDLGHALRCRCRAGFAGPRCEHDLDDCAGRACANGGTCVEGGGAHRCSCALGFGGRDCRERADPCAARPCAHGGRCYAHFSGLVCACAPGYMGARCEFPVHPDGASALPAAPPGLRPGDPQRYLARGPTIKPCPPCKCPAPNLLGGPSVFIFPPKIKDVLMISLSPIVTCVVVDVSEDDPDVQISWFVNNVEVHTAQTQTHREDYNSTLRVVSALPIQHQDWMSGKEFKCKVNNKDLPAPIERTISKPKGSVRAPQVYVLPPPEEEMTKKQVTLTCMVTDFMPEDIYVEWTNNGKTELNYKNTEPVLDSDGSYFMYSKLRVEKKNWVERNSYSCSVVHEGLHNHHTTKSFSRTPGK

[2] = biological target: T2, DLL3 on cells (SHP-77, NCI-H82, HEK-DLL3, membrane proteome array cells) (human, UniProt Q9NYJ7 27-618); test: flow cytometry on SHP-77 cells, Geomeans RL1-H
T2 construct: whole, on cells; also called hDLL3
T2 sequence (looked up): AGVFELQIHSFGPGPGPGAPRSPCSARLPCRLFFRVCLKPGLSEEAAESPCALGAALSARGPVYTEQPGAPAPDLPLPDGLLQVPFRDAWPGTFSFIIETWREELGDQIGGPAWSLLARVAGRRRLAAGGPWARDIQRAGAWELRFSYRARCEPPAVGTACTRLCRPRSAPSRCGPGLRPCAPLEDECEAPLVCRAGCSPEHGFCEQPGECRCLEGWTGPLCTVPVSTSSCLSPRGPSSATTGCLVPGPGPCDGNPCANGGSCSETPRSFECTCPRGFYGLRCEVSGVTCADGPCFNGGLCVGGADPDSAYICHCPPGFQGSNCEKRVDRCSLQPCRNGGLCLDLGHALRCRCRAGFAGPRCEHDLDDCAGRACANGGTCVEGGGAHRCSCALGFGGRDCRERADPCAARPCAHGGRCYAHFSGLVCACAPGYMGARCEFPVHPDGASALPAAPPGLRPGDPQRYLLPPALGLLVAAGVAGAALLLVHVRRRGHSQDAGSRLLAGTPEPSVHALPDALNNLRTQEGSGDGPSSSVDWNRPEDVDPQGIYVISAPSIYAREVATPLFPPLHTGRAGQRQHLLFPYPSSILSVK

mouse DLL3 = biological target: T3, mouse DLL3 (mouse, UniProt O88516 25-477, limits assumed); test: ELISA
T3 construct: also called mDLL3; murine DLL3
T3 sequence (looked up): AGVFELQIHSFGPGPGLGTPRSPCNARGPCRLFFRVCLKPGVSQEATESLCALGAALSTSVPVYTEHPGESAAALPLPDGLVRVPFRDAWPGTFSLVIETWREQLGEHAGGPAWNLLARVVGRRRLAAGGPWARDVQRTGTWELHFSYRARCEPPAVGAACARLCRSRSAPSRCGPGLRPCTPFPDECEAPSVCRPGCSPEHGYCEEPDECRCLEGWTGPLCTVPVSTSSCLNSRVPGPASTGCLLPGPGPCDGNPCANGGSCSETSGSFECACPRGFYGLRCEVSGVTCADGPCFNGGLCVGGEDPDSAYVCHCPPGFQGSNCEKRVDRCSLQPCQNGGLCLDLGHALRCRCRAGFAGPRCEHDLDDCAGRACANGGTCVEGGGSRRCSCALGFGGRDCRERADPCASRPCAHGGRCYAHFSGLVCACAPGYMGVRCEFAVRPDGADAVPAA

[3] = biological target: T2, DLL3 on cells (SHP-77, NCI-H82, …); test: flow cytometry on SHP-77 cells, Geomeans RL1-H; remark: listed apart in the source
[4] = biological target: T4, hDLL3 EGF1-6 (aa 216-492) fused to mIgG2a CH2-CH3 Fc (human); test: ELISA on coated hDLL3 EGF1-6-mIgG2a Fc (2 ug/ml), anti-hIgG-Fc-HRP, A450
T4 construct: also called DLL3 EGF1-6(mIgG2aCH2-CH3); hDLL3 EGF domain construct
T4 chain: T1 chain

human DLL3 on cells = biological target: T5, human DLL3 on cells (human, UniProt Q9NYJ7 27-618); test: cell-based or functional assay
T5 sequence (looked up): T2 sequence (looked up)

B1: 126_zu2 (Fc fusion)
chain: QVQLVESGGGLVQPGGSLRLSCAASGITFSMYSMSWFRQAPGQGLELVAATTTFGSTNYADSVKGRFTISRDNSKNTLYLQMNSLRAEDTAVYYCAARFTSEEYWGQGTLVTVSSEPKSSDKTHTCPPCPAPEAEGAPSVFLFPPKPKDTLMISRTPEVTCVVVDVSHEDPEVKFNWYVDGVEVHNAKTKPREEQYNSTYRVVSVLTVLHQDWLNGKEYKCKVSNKALPSSIEKTISKAKGQPREPQVYTLPPSREEMTKNQVSLTCLVKGFYPSDIAVEWESNGQPENNYKTTPPVLDSDGSFFLYSKLTVDKSRWQQGNVFSCSVMHEALHNQYTQKSLSLSPG
notes: Humanized VHH-Fc
binding result [1]: no binding | EC50 (read off the curve) [2]: ~0.07 nM | binding result (mouse DLL3): no binding | EC50 (read off the curve) [3]: ~0.1 nM

B2: 126 (parental VHHFc of Example 41) (Fc fusion)
chain: QVQLVESGGGMVQPGGSLRLSCAASGITFSMYSMSWYRQPPGKQRELVAATTTFGSTNYADSVKGRFTISRDNAKNTVYLQMNSLKPEDTAVYLCNARFTSEEYWGQGTQVTVSS
notes: Parental VHHFc; not shown: hinge and Fc
binding result [4]: no binding (tested: 100 nM)

B3: Clone 24 VHH-Fc with H435Q Fc (Fc fusion)
chain: QVQYVESGGGLVQPGGSLRLSCAASGFTFSSYRINWYRQPPGKGRELVGSITDTGSTNYADSVKGRFTISRDNAKNTVYLQMSSLKPEDTAVYYCRAPTIAAYWGQGTQVTVSSAPELLGGPSVFLFPPKPKDTLMISRTPEVTCVVVDVSHEDPEVKFNWYVDGVEVHNAKTKPREEQYNSTYRVVSVLTVLHQDWLNGKEYKCKVSNKALPAPIEKTISKAKGQPREPQVYTLPPSREEMTKNQVSLTCLVKGFYPSDIAVEWESNGQPENNYKTTPPVLDSDGSFFLYSKLTVDKSRWQQGNVFSCSVMHEALHNQYTQKSLSLSPG
H435Q-Fc SHP-77 Internalization FOI (human DLL3 on cells): 1.19 FOI

B4: Clone 186 VHH-Fc with H435Q Fc (Fc fusion)
chain: QVQVVESGGGLVQPGGSLTLSCAASGFDFSTYTVNWYRQAPGKEREKVARISSTGTTTNYANSAKGRFTLSRDNAKNRVYLQMNNLKPEDTAVYFCNFERFDSNYWGQGTQVTVSSAPELLGGPSVFLFPPKPKDTLMISRTPEVTCVVVDVSHEDPEVKFNWYVDGVEVHNAKTKPREEQYNSTYRVVSVLTVLHQDWLNGKEYKCKVSNKALPAPIEKTISKAKGQPREPQVYTLPPSREEMTKNQVSLTCLVKGFYPSDIAVEWESNGQPENNYKTTPPVLDSDGSFFLYSKLTVDKSRWQQGNVFSCSVMHEALHNQYTQKSLSLSPG
H435Q-Fc SHP-77 Internalization FOI (human DLL3 on cells): 1.18 FOI

B5: 24 (Fc fusion)
VHH-Fc chain: QVQYVESGGGLVQPGGSLRLSCAASGFTFSSYRINWYRQPPGKGRELVGSITDTGSTNYADSVKGRFTISRDNAKNTVYLQMSSLKPEDTAVYYCRAPTIAAYWGQGTQVTVSS
notes: same clone as 1.m43, 2.m5, 3.m7, 3.m51, 4.m1; also called Clone 24
binding result [4]: binds

B6: 107 (Fc fusion)
VHH-Fc chain: QVQLVESGGGLVQAGDSLRLSCVASDRTFSSYAVGWFRQAPGKEREFVAAISWNGGRTLYTDSVTGRFTISRDNAKSTVYLQMNGLKPEDTAVYYCAARPAAPTRRLEYDYWGQGTQVTVSS
notes: same clone as 1.m45, 2.m28, 3.m30, 3.m55, 4.m13
binding result [4]: binds

B7: Clone 100 VHH-Fc with H435Q Fc (Fc fusion)
chain: QVQLVESGGGSVQPGGSLRLSCAASGIVFNSDVMGWYRQVPGKPRELVATITGGGSTNYATSVKGRFTISRDNAKNTVYLQMNSLRPEDTAVYYCNGRRGDSMLAFWAQGTQVTVSSAPELLGGPSVFLFPPKPKDTLMISRTPEVTCVVVDVSHEDPEVKFNWYVDGVEVHNAKTKPREEQYNSTYRVVSVLTVLHQDWLNGKEYKCKVSNKALPAPIEKTISKAKGQPREPQVYTLPPSREEMTKNQVSLTCLVKGFYPSDIAVEWESNGQPENNYKTTPPVLDSDGSFFLYSKLTVDKSRWQQGNVFSCSVMHEALHNQYTQKSLSLSPG
H435Q-Fc SHP-77 Internalization FOI (human DLL3 on cells): 1.19 FOI

B8: 100 (Fc fusion)
VHH-Fc chain: QVQLVESGGGSVQPGGSLRLSCAASGIVFNSDVMGWYRQVPGKPRELVATITGGGSTNYATSVKGRFTISRDNAKNTVYLQMNSLRPEDTAVYYCNGRRGDSMLAFWAQGTQVTVSS
notes: same clone as 1.m44, 2.m24, 3.m26, 3.m53, 4.m7; also called Clone 100
binding result [4]: binds

B9: 107_zu2 (Fc fusion)
chain: QVQLVESGGGLVQPGGSLRLSCAASDRTFSSYAVGWFRQAPGQGLEFVAAISWNGGRTLYTDSVTGRFTISRDNSKNTLYLQMNSLRAEDTAVYYCAARPAAPTRRLEYDYWGQGTLVTVSSEPKSSDKTHTCPPCPAPEAEGAPSVFLFPPKPKDTLMISRTPEVTCVVVDVSHEDPEVKFNWYVDGVEVHNAKTKPREEQYNSTYRVVSVLTVLHQDWLNGKEYKCKVSNKALPSSIEKTISKAKGQPREPQVYTLPPSREEMTKNQVSLTCLVKGFYPSDIAVEWESNGQPENNYKTTPPVLDSDGSFFLYSKLTVDKSRWQQGNVFSCSVMHEALHNQYTQKSLSLSPG
notes: Humanized VHH-Fc
Kd [1]: 5.04 nM | koff [1]: 0.000513 s⁻¹ | kon [1]: 102000 M⁻¹ s⁻¹ | EC50 (read off the curve) [2]: ~0.2 nM | EC50 (read off the curve) [3]: ~0.2 nM

B10: Clone 126 VHH-Fc with H435Q Fc (Fc fusion)
chain: QVQLVESGGGMVQPGGSLRLSCAASGITFSMYSMSWYRQPPGKQRELVAATTTFGSTNYADSVKGRFTISRDNAKNTVYLQMNSLKPEDTAVYLCNARFTSEEYWGQGTQVTVSSAPELLGGPSVFLFPPKPKDTLMISRTPEVTCVVVDVSHEDPEVKFNWYVDGVEVHNAKTKPREEQYNSTYRVVSVLTVLHQDWLNGKEYKCKVSNKALPAPIEKTISKAKGQPREPQVYTLPPSREEMTKNQVSLTCLVKGFYPSDIAVEWESNGQPENNYKTTPPVLDSDGSFFLYSKLTVDKSRWQQGNVFSCSVMHEALHNQYTQKSLSLSPG
H435Q-Fc SHP-77 Internalization FOI (human DLL3 on cells): 1.19 FOI

B11: Clone 107 VHH-Fc with H435Q Fc (Fc fusion)
chain: QVQLVESGGGLVQAGDSLRLSCVASDRTFSSYAVGWFRQAPGKEREFVAAISWNGGRTLYTDSVTGRFTISRDNAKSTVYLQMNGLKPEDTAVYYCAARPAAPTRRLEYDYWGQGTQVTVSSAPELLGGPSVFLFPPKPKDTLMISRTPEVTCVVVDVSHEDPEVKFNWYVDGVEVHNAKTKPREEQYNSTYRVVSVLTVLHQDWLNGKEYKCKVSNKALPAPIEKTISKAKGQPREPQVYTLPPSREEMTKNQVSLTCLVKGFYPSDIAVEWESNGQPENNYKTTPPVLDSDGSFFLYSKLTVDKSRWQQGNVFSCSVMHEALHNQYTQKSLSLSPG
H435Q-Fc SHP-77 Internalization FOI (human DLL3 on cells): 1.27 FOI
